94 variants from the supplement of paper PMC10567573 can be followed below.

First the molecules themselves.
B1: MIA2 (parent)
chain: DMVSNIELPTRIHEEVYFEPSSSK
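Also: lentivirally expressed fusions sorted by FACS into six bins by GFP to DsRed ratio, PSI derived from sequencing read proportions per bin multiplied by bin number.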

The data set covers variants of B1. Put plainly: protein stability index of a GFP-peptide fusion (GPS, HEK-293T) (PSI 1-6); higher = more stable. The settings on record: c terminus: a fixed tail appended.
On to DMVSNIELPTRIHEEVYFEPGSSK, for which the protein stability index came out at 4.47.

With DMVSNIELPTRIHEEVYFEPNSSK, the protein stability index was found to be 4.19.

For DMVSNIELPTRIHEEVYFEPISSK, the protein stability index was 4.

In the case of DMVSNIELPTRIHEEVYFEPFSSK, the protein stability index came out at 3.56.

Turning to DMVSNIELPTRIHEEVYFEPQSSK, the protein stability index was determined as 3.9.

Take DMVSNIELPTRIHEEVYFEPYSSK: the protein stability index worked out at 3.05.

In the case of DMVSNIELPTRIHEEVYFEPRSSK, the protein stability index was found to be 3.13.

Consider DMVSNIELPTRIHEEVYFEPASSK, for which the protein stability index came out at 3.71.

Turning to DMVSNIELPTRIHEEVYFEPKSSK, the protein stability index is 3.46.

Turning to DMVSNIELPTRIHEEVYFEPESSK, the protein stability index worked out at 4.64.

Take DMVSNIELPTRIHEEVYFEPTSSK: the protein stability index was 3.75.

On to DMVSNIELPTRIHEEVYFEPHSSK, for which the protein stability index worked out at 3.97.

As to DMVSNIELPTRIHEEVYFEPMSSK, the protein stability index came out at 3.4.

In the case of DMVSNIELPTRIHEEVYFEPLSSK, the protein stability index worked out at 3.34.

Consider DMVSNIELPTRIHEEVYFEPPSSK, for which the protein stability index amounted to 4.3.

Turning to DMVSNIELPTRIHEEVYFEPVSSK, the protein stability index is 3.94.

As for DMVSNIELPTRIHEEVYFEPWSSK, the protein stability index was 3.38.

As to DMVSNIELPTRIHEEVYFEPDSSK, the protein stability index was 4.56.

On to DMVSNIELPTRIHEEVYFEPCSSK, for which the protein stability index is 3.71.

On to DMVSNIELPTRIHEEVYFSPSSSK, for which the protein stability index came out at 3.82.

As to DMVSNIELPTRIHEEVYFDPSSSK, the protein stability index came out at 3.38.

For DMVSNIELPTRIHEEVYFTPSSSK, the protein stability index stood at 3.4.

Consider DMVSNIELPTRIHEEVYFIPSSSK, for which the protein stability index is 2.64.

As to DMVSNIELPTRIHEEVYFGPSSSK, the protein stability index was found to be 3.09.

As to DMVSNIELPTRIHEEVYFKPSSSK, the protein stability index was found to be 3.54.

For the variant DMVSNIELPTRIHEEVYFWPSSSK, the protein stability index is 2.72.

Turning to DMVSNIELPTRIHEEVYFRPSSSK, the protein stability index amounted to 3.29.

For the variant DMVSNIELPTRIHEEVYFHPSSSK, the protein stability index was found to be 3.14.

Consider DMVSNIELPTRIHEEVYFMPSSSK, for which the protein stability index is 3.31.

As for DMVSNIELPTRIHEEVYFYPSSSK, the protein stability index was found to be 2.87.

As for DMVSNIELPTRIHEEVYFAPSSSK, the protein stability index was found to be 3.53.

Turning to DMVSNIELPTRIHEEVYFLPSSSK, the protein stability index turned out to be 3.63.

For the variant DMVSNIELPTRIHEEVYFQPSSSK, the protein stability index stood at 3.29.

With DMVSNIELPTRIHEEVYFPPSSSK, the protein stability index amounted to 3.52.

As for DMVSNIELPTRIHEEVYFCPSSSK, the protein stability index came to 2.96.

As for DMVSNIELPTRIHEEVYFVPSSSK, the protein stability index was 3.15.

DMVSNIELPTRIHEEVYFFPSSSK: the protein stability index is 2.86.

For the variant DMVSNIELPTRIHEEVYFNPSSSK, the protein stability index was found to be 3.41.

For the variant DMVSNIELPTRIHEEVYFEHSSSK, the protein stability index worked out at 4.06.

For the variant DMVSNIELPTRIHEEVYFEGSSSK, the protein stability index stood at 4.16.

Take DMVSNIELPTRIHEEVYFECSSSK: the protein stability index was 3.42.

Turning to DMVSNIELPTRIHEEVYFEVSSSK, the protein stability index was 2.56.

Turning to DMVSNIELPTRIHEEVYFEYSSSK, the protein stability index was 2.99.

Take DMVSNIELPTRIHEEVYFEISSSK: the protein stability index was 3.02.

On to DMVSNIELPTRIHEEVYFEESSSK, for which the protein stability index was 4.28.

On to DMVSNIELPTRIHEEVYFEASSSK, for which the protein stability index came out at 3.69.

For the variant DMVSNIELPTRIHEEVYFENSSSK, the protein stability index amounted to 4.12.

On to DMVSNIELPTRIHEEVYFEDSSSK, for which the protein stability index was determined as 4.6.

With DMVSNIELPTRIHEEVYFESSSSK, the protein stability index was 3.52.

Take DMVSNIELPTRIHEEVYFEQSSSK: the protein stability index is 4.02.

Regarding DMVSNIELPTRIHEEVYFELSSSK, the protein stability index came out at 2.72.

With DMVSNIELPTRIHEEVYFETSSSK, the protein stability index came to 3.62.

With DMVSNIELPTRIHEEVYFEWSSSK, the protein stability index came to 2.63.

In the case of DMVSNIELPTRIHEEVYFERSSSK, the protein stability index was found to be 4.18.

As to DMVSNIELPTRIHEEVYFEMSSSK, the protein stability index was determined as 1.88.

In the case of DMVSNIELPTRIHEEVYFEKSSSK, the protein stability index is 3.84.

Regarding DMVSNIELPTRIHEEVYFEFSSSK, the protein stability index was found to be 2.42.

As to DMVSNIELPTRIHEEVYFEPSSDK, the protein stability index is 4.84.

With DMVSNIELPTRIHEEVYFEPSSAK, the protein stability index worked out at 3.2.

With DMVSNIELPTRIHEEVYFEPSSIK, the protein stability index worked out at 3.89.

On to DMVSNIELPTRIHEEVYFEPSSFK, for which the protein stability index worked out at 3.11.

For the variant DMVSNIELPTRIHEEVYFEPSSGK, the protein stability index turned out to be 4.28.

For the variant DMVSNIELPTRIHEEVYFEPSSHK, the protein stability index turned out to be 3.96.

As for DMVSNIELPTRIHEEVYFEPSSCK, the protein stability index came out at 4.

As for DMVSNIELPTRIHEEVYFEPSSEK, the protein stability index was 5.16.

Consider DMVSNIELPTRIHEEVYFEPSGSK, for which the protein stability index worked out at 3.85.

As to DMVSNIELPTRIHEEVYFEPSKSK, the protein stability index turned out to be 3.9.

Turning to DMVSNIELPTRIHEEVYFEPSLSK, the protein stability index stood at 2.58.

Regarding DMVSNIELPTRIHEEVYFEPSTSK, the protein stability index was found to be 4.03.

Consider DMVSNIELPTRIHEEVYFEPSDSK, for which the protein stability index came to 4.25.

Turning to DMVSNIELPTRIHEEVYFEPSASK, the protein stability index came out at 4.28.

Turning to DMVSNIELPTRIHEEVYFEPSHSK, the protein stability index came out at 4.35.

DMVSNIELPTRIHEEVYFEPSESK: the protein stability index was determined as 4.13.

For DMVSNIELPTRIHEEVYFEPSYSK, the protein stability index came to 3.08.

DMVSNIELPTRIHEEVYFEPSISK: the protein stability index amounted to 3.13.

DMVSNIELPTRIHEEVYFEPSMSK: the protein stability index amounted to 3.81.

Consider DMVSNIELPTRIHEEVYFEPSWSK, for which the protein stability index stood at 3.17.

DMVSNIELPTRIHEEVYFEPSRSK: the protein stability index turned out to be 3.73.

For the variant DMVSNIELPTRIHEEVYFEPSPSK, the protein stability index was 4.02.

In the case of DMVSNIELPTRIHEEVYFEPSVSK, the protein stability index was determined as 3.95.

As for DMVSNIELPTRIHEEVYFEPSCSK, the protein stability index came to 3.89.

For the variant DMVSNIELPTRIHEEVYFEPSFSK, the protein stability index is 3.37.

On to DMVSNIELPTRIHEEVYFEPSNSK, for which the protein stability index stood at 4.12.

DMVSNIELPTRIHEEVYFEPSQSK: the protein stability index worked out at 4.13.

Turning to DMVSNIELPTRIHEEVYMEPSSSK, the protein stability index is 4.48.

On to DMVSNIELPTRIHEEVYVEPSSSK, for which the protein stability index is 3.8.

With DMVSNIELPTRIHEEVYREPSSSK, the protein stability index is 4.28.

Regarding DMVSNIELPTRIHEEVYPEPSSSK, the protein stability index came out at 4.23.

As for DMVSNIELPTRIHEEVYSEPSSSK, the protein stability index was found to be 4.62.

As to DMVSNIELPTRIHEEVYWEPSSSK, the protein stability index worked out at 3.52.

With DMVSNIELPTRIHEEVYNEPSSSK, the protein stability index was determined as 4.68.

Consider DMVSNIELPTRIHEEVYTEPSSSK, for which the protein stability index worked out at 4.63.

On to DMVSNIELPTRIHEEVYYEPSSSK, for which the protein stability index worked out at 4.76.

As to DMVSNIELPTRIHEEVYQEPSSSK, the protein stability index came out at 5.12.
